# Test results published in PMC3183026 (Molecular Biology of the Cell, 2011).
# B1: ezrin (endogenous, embryonic rat cortical neurons) (natural protein)
# chain: MPKPINVRVTTMDAELEFAIQPNTTGKQLFDQVVKTIGLREVWYFGLQYVDNKGFPTWLKLDKKVSAQEVRKENPVQFKFRAKFYPEDVADELIQDITQKLFFLQVKEGILSDEIYCPPETAVLLGSYAVQAKFGDYNKEMHKSGYLSSERLIPQRVMDQHKLSRDQWEDRIQVWHAEHRGMLKDSAMLEYLKIAQDLEMYGINYFEIKNKKGTDLWLGVDALGLNIYEKDDKLTPKIGFPWSEIRNISFNDKKFVIKPIDKKAPDFVFYAPRLRINKRILQLCMGNHELYMRRRKPDTIEVQQMKAQAREEKHQKQLERQQLETEKKRRETVEREKEQMLREKEELMLRLQDFEQKTKRAEKELSEQIEKALQLEEERRRAQEEAERLEADRMAALRAKEELERQAQDQIKSQEQLAAELAEYTAKIALLEEARRRKEDEVEEWQHRAKEAQDDLVKTKEELHLVMTAPPPPPPPVYEPVNYHVQEGLQDEGAEPMGYSAELSSEGILDDRNEEKRITEAEKNERVQRQLLTLSNELSQARDENKRTHNDIIHNENMRQGRDKYKTLRQIRQGNTKQRIDEFEAM
# Molecular target: DCC (endogenous, embryonic rat cortical neurons) (rat (endogenous in E18 cortical neurons), UniProt Q63155 26-1445)
# Experiment: co-IP
# DCC (endogenous, embryonic rat cortical neurons), sequence (Q63155 26-1445): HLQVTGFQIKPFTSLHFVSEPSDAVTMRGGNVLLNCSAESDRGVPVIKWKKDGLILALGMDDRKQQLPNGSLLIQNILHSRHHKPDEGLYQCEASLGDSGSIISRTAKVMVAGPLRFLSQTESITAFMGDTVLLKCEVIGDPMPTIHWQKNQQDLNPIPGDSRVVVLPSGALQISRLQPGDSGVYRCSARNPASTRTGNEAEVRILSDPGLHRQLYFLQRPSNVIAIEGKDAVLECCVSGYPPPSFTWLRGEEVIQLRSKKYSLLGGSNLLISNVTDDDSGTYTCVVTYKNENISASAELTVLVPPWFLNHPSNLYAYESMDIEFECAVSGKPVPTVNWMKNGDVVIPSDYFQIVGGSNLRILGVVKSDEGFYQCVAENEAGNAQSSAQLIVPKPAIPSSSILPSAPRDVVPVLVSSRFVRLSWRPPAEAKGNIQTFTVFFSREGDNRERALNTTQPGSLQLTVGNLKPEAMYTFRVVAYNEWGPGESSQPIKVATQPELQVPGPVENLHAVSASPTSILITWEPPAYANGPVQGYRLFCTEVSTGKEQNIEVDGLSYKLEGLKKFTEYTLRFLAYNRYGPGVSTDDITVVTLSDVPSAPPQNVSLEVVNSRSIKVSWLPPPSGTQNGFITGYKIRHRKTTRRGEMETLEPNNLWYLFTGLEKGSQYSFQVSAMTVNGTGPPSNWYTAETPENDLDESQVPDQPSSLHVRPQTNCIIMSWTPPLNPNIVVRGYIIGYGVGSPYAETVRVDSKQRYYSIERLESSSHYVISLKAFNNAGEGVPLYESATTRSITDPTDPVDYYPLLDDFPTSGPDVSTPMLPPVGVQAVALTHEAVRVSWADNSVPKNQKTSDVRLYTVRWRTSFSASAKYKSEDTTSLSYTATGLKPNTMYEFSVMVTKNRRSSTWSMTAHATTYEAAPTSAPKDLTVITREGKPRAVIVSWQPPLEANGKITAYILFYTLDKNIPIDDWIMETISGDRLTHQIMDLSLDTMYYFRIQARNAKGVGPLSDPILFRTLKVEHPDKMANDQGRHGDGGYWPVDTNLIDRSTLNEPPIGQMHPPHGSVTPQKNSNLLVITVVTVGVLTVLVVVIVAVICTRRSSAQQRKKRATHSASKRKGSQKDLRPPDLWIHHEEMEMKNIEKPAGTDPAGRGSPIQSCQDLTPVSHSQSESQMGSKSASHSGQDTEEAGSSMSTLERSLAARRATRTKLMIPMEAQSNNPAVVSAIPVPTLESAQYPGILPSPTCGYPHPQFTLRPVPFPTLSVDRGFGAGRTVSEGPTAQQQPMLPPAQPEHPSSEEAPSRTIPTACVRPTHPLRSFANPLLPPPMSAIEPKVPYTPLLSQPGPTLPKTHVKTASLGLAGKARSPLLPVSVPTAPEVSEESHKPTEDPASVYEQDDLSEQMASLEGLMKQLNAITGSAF
binder,measurement,value
B1,fold increase relative to unstimulated neurons,6 fold
